Target: T1, CT83 peptide on HLA-A2 (human)
T1 peptide: KLVELEHTL
Experiment: killing

B1: A2-CT83 TCR (TCR, V domains shown)
Valpha: GEDVEQSLFLSVREGDSSVINCTYTDSSSTYLYWYKQEPGAGLQLLTYIFSNMDMKQDQRLTVLLNKKDKHLSLRIADTQTGDSAIYFCAEKSGYSGAGSYQLTFGKGTKLSVIP
Vbeta: SAVISQKPSRDICQRGTSLTIQCQVDSQVTMMFWYRQQPGQSLTLIATANQGSEATYESGFVIDKFPISRPNLTFSTLTVSNMSPEDSSIYLCSVQDSEAFFGQGTRLTVV
B1: recognises.

Source: patent US20240082304A1 (published 2024)
